Laboratory results: patent US20230025280A1, “PH RESPONSIVE COMPOSITIONS, FORMULATIONS, AND METHODS OF IMAGING A TUMOR” (ONCONANO MEDICINE, INC, priority 2019, published 2023)
Where “and” joins values, the source holds several entries; their conditions need not be identical. Equal values may be shown once.

Experiment: Phase 1 (1a/1b) pharmacokinetics: plasma concentrations after single IV dose (validated direct fluorescence reader assay), noncompartmental analysis
Assay type: in vivo, human
Details: Phase 1a
Source text: Phase 1 is a single-Principal Investigator, non-randomized, open-label, single-arm, cross-sectional study to evaluate the safety, PK profile, and imaging feasibility of Compound 1 in patients with solid cancers who require surgical excision. The main purpose of this study was to investigate the safety, PK, and feasibility of Compound 1 as an intra-operative optical imaging agent to detect tumors and metastatic lymph nodes in solid cancers. The study was intended to investigate the optimal dose range of Compound 1 for an adequate TBR and CNR of fluorescence obtained intraoperatively at 24 (±8) hours post dosing and with ex vivo specimens using ICG compatible cameras and imaging devices.
Phase 1 enrolled 30 patients with solid cancers (HNSCC, breast cancer, esophageal cancer, or colorectal cancer) who have a biopsy-confirmed diagnosis of respective tumor types and are scheduled to undergo surgical resection of the tumor. The study design included a standard 3+3 design for the dose-escalation portion (Phase 1a; N=18 maximum) followed by a dose-expansion portion (Phase 1b; N=15). All patients received a single I.V. dose of Compound 1, followed by routine surgery approximately 24 hours after infusion of Compound 1.
Phase 1a was a dose-finding study performed in 5 cohorts of 3 patients each. The dose levels evaluated were […], and 1.2 mg/kg, in this sequence. Inter-cohort dose escalation took place after the last patient in the previous cohort completed the Day 10 safety assessment. Safety, PK, and imaging feasibility were evaluated in both the Phase 1a and 1b portions of the study. Patient safety is assessed during the study and for up to 10 days post-dose.
Study design: Single Compound 1 IV dose was administered as a 1-5 minute IV infusion to patients in five cohorts (0.1, 0.3, 0.5, 0.8, and 1.2 mg/kg) with three patients per cohort in Phase 1a and 15 patients at a dose of 1.2 mg/kg in Phase 1b. Patient demographic information including tumor types is presented in Table 4 and 5 for Phase 1a and Table 5 for Phase 1b. Intertek Pharmaceutical Services (San Diego, Calif.) determined Compound 1 plasma concentrations using a validated direct fluorescence reader assay. Pacific BioDevelopment (Davis, Calif.) performed the PK analysis.
Sample collection: Blood samples were collected prior to infusion and at 10 minutes and 0.5, 1, 3, 8, 24, 48, 72, and 240 hours after infusion.
Analysis: Plasma concentration versus time profiles were generated for each patient. Pharmacokinetic parameters were estimated using Phoenix WinNonlin (version 8.0). According to SOP, concentrations reported as BQL were set to 0 except for the 0.5 h sample for subject #ON1102, which was set to LLOQ/2 ([…] value used in parameter calculations) and the 24 and 48 h samples.
If the coefficient of determination for the terminal slope estimation was less than 0.8, T1/2 was not reported (NR). AUC extrapolated to infinity is not reported for any data set because in all cases the % extrapolated AUC was greater than 20% and thus the AUCinf estimate would not be reliable. The concentration at 10 minutes, the first time point measured (C10m), was also reported for each patient.
The area under the plasma concentration versus time curves from dosing to the last time point with a measurable concentration (AUClast) was estimated by the linear trapezoid method. The last three or more time points were used to estimate the elimination rate constant (λz) which was used to estimate the terminal-phase half-life (T1/2) and AUC from zero to infinity (AUCINF) from the following equations: […]

[1] = 0.5 mg/kg single IV, individual subject
[2] = 0.8 mg/kg single IV, individual subject
[3] = 1.2 mg/kg single IV, individual subject

## PEO90-140-b-P(DBA60-150-r-ICG0-3-r-AMA0-3) [Compound 1]
[1]
  Cmax: 22700 ng/mL and 17100 ng/mL and 14000 ng/mL
  Tmax: 3.00 h and 0.500 h
0.5 mg/kg single IV, mean
  AUC0-24 hr: 289 µg·h/mL
  AUCall: 835 µg·h/mL
  AUClast: 410 µg·h/mL
  C10 m: 17.3 µg/mL
  Cmax: 17900 ng/mL
  Tmax: 2.17 h
0.5 mg/kg single IV, median
  AUC0-24 hr: 314 µg·h/mL
  AUCall: 314 µg·h/mL
  AUClast: 160 µg·h/mL
  C10 m: 16.2 µg/mL
  Cmax: 17100 ng/mL
  Tmax: 3.00 h
0.500 mg/kg, 0.170 hr, individual subject
  Plasma Conc: 22.0 µg/mL and 16.2 µg/mL and 13.6 µg/mL
0.500 mg/kg, 0.170 hr, mean
  Plasma Conc: 17.3 µg/mL
0.500 mg/kg, 0.500 hr, individual subject
  Plasma Conc: 16.7 µg/mL and 15.9 µg/mL and 14.0 µg/mL
0.500 mg/kg, 0.500 hr, mean
  Plasma Conc: 15.5 µg/mL
0.500 mg/kg, 1.00 hr, individual subject
  Plasma Conc: 15.8 µg/mL and 13.8 µg/mL and 12.6 µg/mL
0.500 mg/kg, 1.00 hr, mean
  Plasma Conc: 14.1 µg/mL
0.500 mg/kg, 3.00 hr, individual subject
  Plasma Conc: 22.7 µg/mL and 17.1 µg/mL and 11.9 µg/mL
0.500 mg/kg, 3.00 hr, mean
  Plasma Conc: 17.2 µg/mL
0.500 mg/kg, 8.00 hr, individual subject
  Plasma Conc: 19.3 µg/mL and 14.6 µg/mL and 13.9 µg/mL
0.500 mg/kg, 8.00 hr, mean
  Plasma Conc: 15.9 µg/mL
0.500 mg/kg, 24.0 hr, individual subject
  Plasma Conc: BQL (BQL (<10 μg/mL), set = 0 for PK analysis) (2×) and 12.4 μg/mL
0.500 mg/kg, 24.0 hr, mean
  Plasma Conc: 4.13 µg/mL
0.500 mg/kg, 48.0 hr, individual subject
  Plasma Conc: BQL (BQL (<10 μg/mL), set = 0 for PK analysis) (2×) and 14.0 μg/mL
0.500 mg/kg, 48.0 hr, mean
  Plasma Conc: 4.67 µg/mL
0.500 mg/kg, 72.0 hr, individual subject
  Plasma Conc: BQL (BQL (<10 μg/mL), set = 0 for PK analysis) (2×) and 12.0 μg/mL
0.500 mg/kg, 72.0 hr, mean
  Plasma Conc: 4.00 µg/mL
0.500 mg/kg, 240 hr, individual subject
  Plasma Conc: BQL (BQL (<10 μg/mL), set = 0 for PK analysis)
0.500 mg/kg, 240 hr, mean
  Plasma Conc: 0.00 µg/mL
0.8 mg/kg
  Mean AUC0-24h: 383 µg·h/mL
  Mean C10: 19.8 µg/mL
  Mean terminal-phase half-life: 79.0 h
[2]
  AUC0-24 hr: 416 µg·h/mL and 354 µg·h/mL and 380 µg·h/mL
  AUCall: 905 µg·h/mL and 518 µg·h/mL and 1790 µg·h/mL
  AUClast: 756 µg·h/mL and 354 µg·h/mL and 927 µg·h/mL
  C10 m: 21.7 µg/mL and 19.6 µg/mL and 18.2 µg/mL
  Cmax: 23000 ng/mL and 19600 ng/mL and 18200 ng/mL
  T1/2: 74.5 h and 83.4 h
  Tmax: 1.00 h and 0.170 h
0.8 mg/kg single IV, mean
  AUC0-24 hr: 383 µg·h/mL
  AUCall: 1070 µg·h/mL
  AUClast: 679 µg·h/mL
  C10 m: 19.8 µg/mL
  Cmax: 20300 ng/mL
  T1/2: 79.0 h
  Tmax: 0.447 h
0.8 mg/kg single IV, median
  AUC0-24 hr: 380 µg·h/mL
  AUCall: 905 µg·h/mL
  AUClast: 756 µg·h/mL
  C10 m: 19.6 µg/mL
  Cmax: 19600 ng/mL
  T1/2: 79.0 h
  Tmax: 0.170 h
0.800 mg/kg, 0.170 hr, individual subject
  Plasma Conc: 21.7 µg/mL and 19.6 µg/mL and 18.2 µg/mL
0.800 mg/kg, 0.170 hr, mean
  Plasma Conc: 19.8 µg/mL
0.800 mg/kg, 0.500 hr, individual subject
  Plasma Conc: 19.3 µg/mL and 17.6 µg/mL and 17.1 µg/mL
0.800 mg/kg, 0.500 hr, mean
  Plasma Conc: 18.0 µg/mL
0.800 mg/kg, 1.00 hr, individual subject
  Plasma Conc: 23.0 µg/mL and 18.2 µg/mL and 18.0 µg/mL
0.800 mg/kg, 1.00 hr, mean
  Plasma Conc: 19.7 µg/mL
0.800 mg/kg, 3.00 hr, individual subject
  Plasma Conc: 20.0 µg/mL and 14.4 µg/mL and 17.6 µg/mL
0.800 mg/kg, 3.00 hr, mean
  Plasma Conc: 17.3 µg/mL
0.800 mg/kg, 8.00 hr, individual subject
  Plasma Conc: 16.7 µg/mL and 15.1 µg/mL and 16.6 µg/mL
0.800 mg/kg, 8.00 hr, mean
  Plasma Conc: 16.1 µg/mL
0.800 mg/kg, 24.0 hr, individual subject
  Plasma Conc: 16.0 μg/mL and 13.7 μg/mL (2×)
0.800 mg/kg, 24.0 hr, mean
  Plasma Conc: 14.5 µg/mL
0.800 mg/kg, 48.0 hr, individual subject
  Plasma Conc: 12.4 μg/mL and BQL (BQL (<10 μg/mL), set = 0 for PK analysis) and 10.8 μg/mL
0.800 mg/kg, 48.0 hr, mean
  Plasma Conc: 7.73 µg/mL
0.800 mg/kg, 72.0 hr, individual subject
  Plasma Conc: BQL (BQL (<10 μg/mL), set = 0 for PK analysis) (2×) and 10.3 μg/mL
0.800 mg/kg, 72.0 hr, mean
  Plasma Conc: 3.43 µg/mL
0.800 mg/kg, 240 hr, individual subject
  Plasma Conc: BQL (BQL (<10 μg/mL), set = 0 for PK analysis)
0.800 mg/kg, 240 hr, mean
  Plasma Conc: 0.00 µg/mL
1.2 mg/kg
  Mean AUC0-24h: 495 µg·h/mL
  Mean C10: 31.7 µg/mL
  Mean terminal-phase half-life: 36.5 h
[3]
  AUC0-24 hr: 348 µg·h/mL and 563 µg·h/mL and 574 µg·h/mL
  AUCall: 348 µg·h/mL and 1160 µg·h/mL and 1020 µg·h/mL
  AUClast: 184 µg·h/mL and 970 µg·h/mL and 891 µg·h/mL
  C10 m: 28.0 µg/mL and 34.1 µg/mL and 33.0 µg/mL
  Cmax: 28000 ng/mL and 34100 ng/mL and 33000 ng/mL
  T1/2: 32.5 h and 46.5 h and 30.6 h
  Tmax: 0.170 h
